{
  "source": "paper PMC4557345",
  "target": "Drosophila Orai (dOrai), expressed in HEK293T cells (Drosophila) (UniProt Q9U6B8)",
  "sequence (Q9U6B8 whole entry)": "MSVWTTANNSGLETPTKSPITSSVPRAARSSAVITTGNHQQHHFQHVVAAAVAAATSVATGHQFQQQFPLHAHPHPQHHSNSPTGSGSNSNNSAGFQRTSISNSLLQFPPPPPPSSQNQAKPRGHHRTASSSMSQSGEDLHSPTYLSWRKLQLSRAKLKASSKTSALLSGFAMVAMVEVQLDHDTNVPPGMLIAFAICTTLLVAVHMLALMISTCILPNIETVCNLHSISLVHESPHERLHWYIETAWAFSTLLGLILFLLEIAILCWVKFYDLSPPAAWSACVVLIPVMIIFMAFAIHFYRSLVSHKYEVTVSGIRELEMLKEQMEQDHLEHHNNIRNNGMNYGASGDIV",
  "data": [
    {"substance": "dmBACCS2-N425S", "values": [
      {"measurement": "recovery time constant of the light-activated whole-cell current (patch clamp, HEK293T), against dmBACCS2 (fold of dmBACCS2)", "value": "< 0.5"}
    ]},
    {"substance": "dmBACCS2-V416L", "values": [
      {"measurement": "recovery time constant of the light-activated whole-cell current (patch clamp, HEK293T), against dmBACCS2 (fold of dmBACCS2)", "value": "> 100"}
    ]}
  ]
}
